± gives the standard error. For some of these results: This sample holds only a part of the variants without activity.
B1: glmS ribozyme (parent)
chain: AUAAAAGCGCCAGAACUACAGAAAUGUAGUUGACGAGGAGGAGGUUUAUCGAAUUUUCGGCGGAUGCCUCCAAA

Key:
Settings in all cases: with glucosamine-6-phosphate
glucosamine-6-phosphate [1] = variants of: B1; assay: kcat; higher = faster cleavage; RNA array
Method in brief: (§1)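 Barcoded ribozyme variants on sequenced MiSeq chips were transcribed in situ by E. coli RNA polymerase and followed at 37 °C through a hybridised Cy3 probe. Glucosamine-6-phosphate at 40 μM to 10 mM in HEPES/KCl/Mg(OAc)2 buffer was flowed in, and tiles were imaged over ~14 h. Signals were normalised to baseline and to non-cleaving reference variants, and per-tile medians were fit to one- or two-exponential decays to give kobs. Weighted Michaelis–Menten fits across concentrations gave kcat and KM.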

glucosamine-6-phosphate [2] = variants of: B1; assay: KM; higher = weaker cofactor use; RNA array
Method in brief: as §1

glucosamine-6-phosphate [3] = variants of: B1; assay: self-cleavage kobs at 160 uM GlcN6P; higher = faster cleavage; RNA array
Method in brief: as §1

glucosamine-6-phosphate [4] = variants of: B1; assay: self-cleavage kobs at 640 uM GlcN6P; higher = faster cleavage; RNA array
Method in brief: as §1

glucosamine-6-phosphate [5] = variants of: B1; assay: self-cleavage kobs at 2500 uM GlcN6P; higher = faster cleavage; RNA array
Method in brief: as §1

glucosamine-6-phosphate [6] = variants of: B1; assay: self-cleavage kobs at 10000 uM GlcN6P; higher = faster cleavage; RNA array
Method in brief: as §1

glucosamine-6-phosphate [7] = variants of: B1; assay: self-cleavage kobs at 40 uM GlcN6P; higher = faster cleavage; RNA array
Method in brief: as §1

Variant | kcat (glucosamine-6-phosphate [1]) [s⁻¹] | KM (glucosamine-6-phosphate [2]) [µM] | self-cleavage kobs at 160 uM GlcN6P (glucosamine-6-phosphate [3]) [s⁻¹] | self-cleavage kobs at 640 uM GlcN6P (glucosamine-6-phosphate [4]) [s⁻¹] | self-cleavage kobs at 2500 uM GlcN6P (glucosamine-6-phosphate [5]) [s⁻¹] | self-cleavage kobs at 10000 uM GlcN6P (glucosamine-6-phosphate [6]) [s⁻¹] | self-cleavage kobs at 40 uM GlcN6P (glucosamine-6-phosphate [7]) [s⁻¹]
A53C C67A | 0.000935 ± 0.0003 | 1500 ± 750 | 7.58e-05 ± 1.6e-05 | 0.000414 ± 6.3e-05 | 0.000435 ± 0.00011 | 0.000889 ± 0.00017 | 
A53C C67G | 3.47e-05 ± 4.1e-06 |  |  |  | 3.42e-05 ± 9e-06 | 3.14e-05 ± 6.5e-06 | < 1e-05
U49A U65G | < 1e-05 |  | < 1e-05 |  |  | < 1e-05 | 
C50U A53C | 1.18e-05 ± 1.3e-06 |  |  |  |  |  | 
C50U A53G | 6.82e-05 ± 1.3e-06 | 642 ± 54 |  | 3.45e-05 ± 1.6e-05 | 5.41e-05 ± 1.5e-05 | 6.42e-05 ± 1.5e-05 | 
A52G C68A | 2.06e-05 ± 5.7e-06 |  |  |  |  |  | 
C50U C71A | 2.1e-05 ± 3.7e-06 |  |  | 2.36e-05 ± 1.1e-05 | 2.3e-05 ± 8.6e-06 |  | 
A53C U55A | 0.00829 ± 0.0024 | 2150 ± 840 | 0.000453 ± 6.9e-05 | 0.00172 ± 0.00021 | 0.00411 ± 0.00049 | 0.00772 ± 0.00094 | 0.000204 ± 1.9e-05
U54G U56G | 0.016 ± 0.0043 | 2790 ± 950 | 0.000796 ± 0.00017 | 0.00338 ± 0.00059 | 0.00688 ± 0.0019 | 0.013 ± 0.0058 | 
A53G | 0.0676 ± 0.0095 | 2010 ± 330 | 0.00441 ± 0.0003 | 0.015 ± 0.00053 | 0.0341 ± 0.0017 | 0.0639 ± 0.0029 | 0.00137 ± 2.6e-05
A53C | 0.0162 ± 0.0036 | 2870 ± 790 | 0.000713 ± 2.4e-05 | 0.00273 ± 6.9e-05 | 0.00834 ± 0.0003 | 0.0126 ± 0.00041 | 0.000261 ± 5.6e-06
A53U | 0.048 ± 0.0058 | 2500 ± 350 | 0.00253 ± 0.00016 | 0.0093 ± 0.00029 | 0.0221 ± 0.00097 | 0.042 ± 0.0018 | 0.000782 ± 1.4e-05
U54A U69G | 6.78e-05 ± 1.1e-05 |  | 6.31e-05 ± 2.8e-05 | 9.07e-05 ± 1.8e-05 | 9.01e-05 ± 1.6e-05 | 5.62e-05 ± 8.3e-06 | 
U54G C70G | 0.000119 ± 2.1e-05 |  | 0.000128 ± 1.7e-05 | 0.000182 ± 2.2e-05 | 0.000182 ± 2.5e-05 | 9.76e-05 ± 9.2e-06 | 8.74e-05 ± 8.1e-06
A52U C67G | 0.000281 ± 3.9e-05 | 2620 ± 740 |  | 6.34e-05 ± 7.8e-06 | 0.000118 ± 1.4e-05 | 0.000235 ± 2e-05 | 

— the supplement of paper PMC7125110
